Among the data in article PMC12478413 (bioRxiv, 2025) are stoichiometry N, Kd and stoichiometry N (GCase E326K : LIMP2 (2:2)) values, retold here.

Like-named read-outs stand apart in the source and are kept apart here.

Broadly, the stoichiometry N is a count of units in the complex or per binding partner. One may read the Kd as the concentration at which binding is half-saturated.

Experiment [1] deals with recombinant GCase E326K+R329A double mutant (human). The experiment is described as follows: SEC. Background: In gel filtration, larger molecules generally elute earlier.
Experiment [2] deals with recombinant GCase E326K variant (human GBA1 residues A40-Q536) (human). Description: dynamic light scattering.
Experiment [3] shares this target. The experiment is described as follows: SEC.
For experiment [4], the target named is recombinant human LIMP2 lumenal domain (residues 36-430) (human) (UniProt Q14108). Description: SPR. A general note: SPR reads the build-up and loss of mass on a sensor chip optically.
For experiment [5] the target is unchanged. The experiment is described as follows: SEC-MALS.
Experiment [6] has the same target. Description: SPR. The source holds these as a separate data set.
For experiment [7], the target named is T1, recombinant WT GCase (glucocerebrosidase, human GBA1 residues A40-Q536) (human, UniProt P04062 40-536).
T1 sequence (looked up): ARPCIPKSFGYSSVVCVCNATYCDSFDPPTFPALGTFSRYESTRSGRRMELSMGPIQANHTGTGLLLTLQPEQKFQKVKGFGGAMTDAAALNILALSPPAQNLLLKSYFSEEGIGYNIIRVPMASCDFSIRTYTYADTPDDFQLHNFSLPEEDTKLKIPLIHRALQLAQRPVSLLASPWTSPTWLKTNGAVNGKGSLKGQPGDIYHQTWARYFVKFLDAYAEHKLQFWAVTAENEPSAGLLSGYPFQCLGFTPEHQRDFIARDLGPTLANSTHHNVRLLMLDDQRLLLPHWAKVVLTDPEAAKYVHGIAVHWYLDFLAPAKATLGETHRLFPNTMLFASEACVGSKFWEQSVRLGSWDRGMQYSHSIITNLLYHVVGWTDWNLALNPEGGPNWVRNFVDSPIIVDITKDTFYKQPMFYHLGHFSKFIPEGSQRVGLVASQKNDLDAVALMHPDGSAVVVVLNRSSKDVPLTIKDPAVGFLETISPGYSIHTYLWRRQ
Description: SPR.

Experiment [8] addresses T1, recombinant WT GCase …. The experiment is described as follows: SPR. This is another data set of the same source.

Consider “recombinant GCase E326K+R329A double mutant (enzyme)”, for which, in experiment [1], the stoichiometry N was found to be 2.

On to “recombinant GCase E326K variant (human GBA1 residues A40-Q536) (enzyme)”, for which the stoichiometry N in experiment [2] and in experiment [3] was 2 throughout. Moreover, the Kd in experiment [4] amounted to 3.89 nM; in experiment [6] it was 2.44 nM. In addition, the stoichiometry N (GCase E326K : LIMP2 (2:2)) in experiment [5] is 1.

B1: recombinant human LIMP2 lumenal domain (residues 36-430) (domain or fragment, UniProt Q14108 36-430, looked up)
chain: SIEKKIVLRNGTEAFDSWEKPPLPVYTQFYFFNVTNPEEILRGETPRVEEVGPYTYRELRNKANIQFGDNGTTISAVSNKAYVFERDQSVGDPKIDLIRTLNIPVLTVIEWSQVHFLREIIEAMLKAYQQKLFVTHTVDELLWGYKDEILSLIHVFRPDISPYFGLFYEKNGTNDGDYVFLTGEDSYLNFTKIVEWNGKTSLDWWITDKCNMINGTDGDSFHPLITKDEVLYVFPSDFCRSVYITFSDYESVQGLPAFRYKVPAEILANTSDNAGFCIPEGNCLGSGVLNVSICKNGAPIIMSFPHFYQADERFVSAIEGMHPNQEDHETFVDINPLTGIILKAAKRFQINIYVKKLDDFVETGDIRTMVFPVMYLNESVHIDKETASRLKSMIN
modifications: biotin on the Avitag (BirA, for SPR)
On to B1, for which the results for the Kd in experiment [7] and in experiment [8] were 14.4 nM and 19.9 nM, respectively.
